These results are taken from the RNAGym collection of RNA variant scans (doi:10.1073/pnas.2313332121).

This sample holds only a part of the variants without activity. Where only a bound is given, the exact number is not on record here.

Sequences and labels used below:
B1: TPR 5TU (parent)
chain: GGAUCUUCUCGAUCUAACAAAAAAGACAAAUCUGCCACAAAGCUUGAGAGCAUCUUCGGAUGCAGAGGCGGCAGCCUUCGGUGGCGCGAUAGCGCCAACGUUCUCAACUAUGACACGCAAAACGCGUGCUCCGUUGAAUGGAGUUUAUCAUG

Variants of B1 are the subject of the data set. Briefly: polymerase ribozyme fitness, log enrichment relative to wild type (log ratio); higher = more active; in vitro selection for triplet polymerase activity. In a few lines: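 Streptavidin-bead capture of gel-excised extended constructs, followed by RT-PCR, closed a single triplicate in vitro selection round. That round began by annealing PCR-built, transcribed mutant libraries of each subunit of a heterodimeric triplet polymerase ribozyme with a biotinylated primer, the partner subunit and triplets, then incubating them frozen at −7 °C. After Illumina sequencing of inputs and outputs, genotypes needed ≥10 input reads and ≥1 read per output. Fitness is the base-2 logarithm of genotype enrichment over wild-type enrichment, using inverse-variance-weighted replicate averages.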
Turning to GGAUCUUCUCGAUAUAACAAAAAAGACAAAUCUGCCAUAAAGCUUGAGAGCAUCUUCGGAUGCAGAGGCGGCAGCCUUCGGUGGCGCGAUAGCGCCAACGUUCUCAACUAUGACACGCAAAACGCGUGCUCCGUUGAAUGGAGUUUAUCAUG, the “polymerase ribozyme fitness (log ratio)” value is -1.31.

In the case of GGAUCUUCUCGAUAUAACAAAAAAGACAAAUCUGCCACAAAGCUUGAGAGCAUCUUCGGAUGCAGAGGCGGCAGCCUUCGGUGGCGCGAUAGCGUCAACGUUCUCAACUAUGACACGCAAAACGCGUGCUCCGUUGAAUGGAGUUUAUCAUG, the “polymerase ribozyme fitness (log ratio)” value is -1.38.

For the variant GGAUCUUCUCGAUAUAACAAAAAAGACAAAUCUGCCACAAAGCUUGAGAGCAUAUUCGGAUGCAGAGGCGGCAGCCUUCGGUGGCGCGAUAGCGCCAACGUUCUCAACUAUGACACGCAAAACGCGUGCUCCGUUGAAUGGAGUUUAUCAUG, the “polymerase ribozyme fitness (log ratio)” value was -3.55.

Turning to GGAUCUUCUCGAUAUAACAAAAAAGACAAAUCUGCCACAAAGCUUGAGAGCAUUUUCGGAUGCAGAGGCGGCAGCCUUCGGUGGCGCGAUAGCGCCAACGUUCUCAACUAUGACACGCAAAACGCGUGCUCCGUUGAAUGGAGUUUAUCAUG, the “polymerase ribozyme fitness (log ratio)” value was -2.07.

In the case of GGAUCUUCUCGAUAUAACAAAAAAGACAAAUCUGCCACAAAGCUUGAGAGCAUCUUCGGAUGUAGAGGCGACAGCCUUCGGUGGGGCGAUAGCGCCAACUUUCUCAACUAUGACACGCAAAACGCGUGCUCCGUUGAAUGGAGUUUAUCAUG, the “polymerase ribozyme fitness (log ratio)” value was at most -4.2.

For GGAUCUUCUCGAUAUAACAAAAAAGACAAAUCUGCCAAAAACCUUGAGAGCAUCUGCGGAUGCAGACGCGGCAGCCUUCGGUGACGCGAUAGCGCCAACGUUCUCAAUUAUGACACGCAAAACGCGCGCUCCGUUGAAUGGAGUUUAUCAUG, the “polymerase ribozyme fitness (log ratio)” value was at most -4.2.

For the variant GGAUCUUCUCGAUAUAACAAAAAAGACAAAUCUGCCACAAAGCUUGAGAGCAUCUUCAGAUGCAGAGACGGCAGCCUACGGUGGCGCGAUAGCACCAACGUUCUCAACUAUGACACGCAAAACGCGUGCUCCGUUGAAUGGAGUUUAUCAUG, the “polymerase ribozyme fitness (log ratio)” value is at most -4.2.

As to GGAUCUUCUCGAUAUAACAAAAAAGACAAAUCUGCCAGAAAGCUUGAGAGCAUCUUCGGAUGCAGAGGCGGCAGCCUUCGUUGGCGCGAUAGCUCCAACGUUCUCAACUAUGACACGCAAAACGCGUGCUCCGUUGAAUGGAGUUUAUCAUG, the “polymerase ribozyme fitness (log ratio)” value is -3.15.

In the case of GGAUCUUCUCGAUAUAACAAAAAAGACAAAUCUGCCACAAAGCUUGAGAACAUCUUCGGAUGCAGAGGCGGCAGCCUUCGGUGGUGCGAUAGCGCCAACGUUCUCAACUAUGACACGCAAAACGCCUGCUCCGUUGAAUGGAGUUUAUCAUG, the “polymerase ribozyme fitness (log ratio)” value was -4.17.

In the case of GGAUCUUCUCGAUAUAACAAAAAAGACAAAUCUGCCACAAAGCUUGAGAGCAUCUUCGGAUGCAGAGGCGGCAGCCUUCGGUGGCGCGAUAGCGCCAAGGUUCUCAACUAUGACACGCAAAACGCGUGCUCCGUUGAAUGGAGUUUAUCAUG, the “polymerase ribozyme fitness (log ratio)” value is -1.66.

Regarding GGAUCUUCUCGAUAUAACAAAAAAGACAAAUCUGCCACAAAGCUUGAGAGCAUCUUCGGAUGCAGAGGCGGCAGCAUUCGGUGGCGCGCGAGCGUCAACGUUCUCAUCUAUGACACGCAAAACGCGUGCUCCGUUGAAUGGAGUUUAUCAUG, the “polymerase ribozyme fitness (log ratio)” value was at most -4.2.

On to GGAUCUUCUCGAUAUAACAAAAAAGACAAAUCUGCCACAAAGCUUGAGAGCAUCUUCGGAUGCAGAGGCGGCAGCCUUCGGUGGCGCGAUAGCGCCAACGUUCUCAACUAUGACACGCAAAACGAGUGCUCCGUUGAAUGGAGUUUAUCAUG, for which the “polymerase ribozyme fitness (log ratio)” value was -1.75.

As to GGAUCUUCUCGAUAUAACAAAAAAAACAAAUCUGCCACAAAGCUUGAGAGCAGCUUCGGAUGCAGAGGCGGCAGCCUUCGGUGCCGUGAUAGCGCCAACGUUCUCAACUAUGACACCCAAAACACGUGCUCCGUUGAAUGGAGUUUAUCAUG, the “polymerase ribozyme fitness (log ratio)” value was at most -4.2.

As for GGAUCUUCUCGAUAUAACAAAAAAGACAAAUCUGCCACAAAGCUUGAGAGCAUUUUCGGAUGCAGAGGCGGCAGCCUUCGGUUGCGCGAUAGCGUCAACGUUCUCAACUAGGACACGCAAAACGCGUGCUCCGGUGAAUGGAGUUUAUCAUG, the “polymerase ribozyme fitness (log ratio)” value was at most -4.2.

Regarding GGAUCUUCUCGAUAUAACAAAAAAGACAAAUCUGCCACAAAGCUUGAGAGCAUCUUCGGAUGCAGAGGCGGCAGUCUUCGGUGGCGCGAUAGCGCCAACGUUCUCAACUAUGACACGCAAAACGCGUGCUCCGUUGAAUGGAGUUUAUCAUG, the “polymerase ribozyme fitness (log ratio)” value was -1.84.

In the case of GGAUCUUCUCGAUAUAACAAAAAAGACAAAUCUGCCACAAAGCUUGAGAGCAUCUUCGGAUGCAGAGGCGGCAGCCUUCGGUGGCGCGAUAGUGCCAACGUUCUCAACUAUGACACGCAAAACGCGUGCUCCGUUGAAUGGAGUUUAUCAUG, the “polymerase ribozyme fitness (log ratio)” value is -2.33.

With GGAUCUUCUCGAUAUAACAAAAAAGACAAAUCUGCCACAAAGCUUGAGAGCAUCUUCAGAUGCAGAGGCGGCAGCCUUCGGUGGCGCGUUAGCUCCAACGUUCUCAACUAUGACACGCAAAACGCGUGCUCCGUUGAAUGGAGUUUAUCAUG, the “polymerase ribozyme fitness (log ratio)” value is -3.75.

As to GGAUCUUCUCGAUAUAACAAAAAAGACAAAUCUGCCACAAAGCUUGAGAGCAUCUUCGGAUGCAGAGGCGGCAGCCUUCGGUGGAGCGAUAGCGCCAACGUUCUCAACUAUGACACGCAAAACGCGUGCUCCGUUGAAUGGAGUUUAUCAUG, the “polymerase ribozyme fitness (log ratio)” value was -2.69.

With GGAUCUUCUCGAUAUAACAAAAAAGACAAAUCUGCCACAAAGCUUGAGAGCAUCUUCGAAUGCAGAGGCGGCAGCCUUCGGUGACGCGAUAGCGCCAACGUUCUCGACUAUGACACGCAAAACGGGUGCUCCGUUGAAUGGAGUUUACUAUG, the “polymerase ribozyme fitness (log ratio)” value is at most -4.2.
